Experiment in all cases: ITC
Data set [1] deals with T1, TRBP-D12 (Homo sapiens, UniProt Q15633 19-228).
T1 sequence: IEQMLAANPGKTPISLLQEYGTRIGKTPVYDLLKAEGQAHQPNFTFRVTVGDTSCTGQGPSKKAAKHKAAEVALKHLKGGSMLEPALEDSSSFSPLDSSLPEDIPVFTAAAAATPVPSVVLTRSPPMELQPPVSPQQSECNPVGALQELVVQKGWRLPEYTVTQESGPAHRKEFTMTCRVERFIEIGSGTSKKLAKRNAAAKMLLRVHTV

Data set [2] has as its target T2, TRBP-D2 (Homo sapiens, UniProt Q15633 157-228).
T2 sequence: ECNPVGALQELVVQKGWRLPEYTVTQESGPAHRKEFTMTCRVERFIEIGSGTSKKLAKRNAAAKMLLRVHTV

Data set [3] has as its target T3, TRBP-D1 (Homo sapiens, UniProt Q15633 19-99).
T3 sequence: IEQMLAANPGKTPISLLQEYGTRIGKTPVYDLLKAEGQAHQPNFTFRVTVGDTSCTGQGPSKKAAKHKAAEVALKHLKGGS

Data set [4] deals with T1, TRBP-D12. The source holds these as a separate data set.

Read-outs that look alike come from different tables or passages of the source.

B1: miR-155/miR-155* (dsRNA)
RNA 1: GGAAUGCUAAUCGUGAUAGGCCU
RNA 2: GGCCUACAUAUUAGCAUUCCCA
A word on the Kd: it is the equilibrium constant for the complex coming apart. High values mean a looser complex, low ones a tighter complex. With B1, the Kd in data set [1] is 1 ± 0.7 µM.

B2: pre-miR-155 (structured_RNA)
RNA: GGAAUGCUAAUCGUGAUAGGGGUUUUUGCCUCCAACUGACUCCUACAUAUUAGCAUUCCCA
Turning to B2, the Kd in data set [2] worked out at 3.7 ± 0.5 µM; in data set [3], 15.4 ± 0.8 µM; in data set [4], 0.5 µM.
